Test results: patent publication US20190029960A1, “Therapeutic Nanoparticles Having EGFR Ligands and Methods of Making and Using Same” (Pfizer Inc., priority 2016, published 2019)
Where a SMILES comes first, the peptide text is derived from it. Bridges are numbered along the chain shown (N, C = ends). Primed or numbered codes have the meaning given here. Where no end group is shown, it is not given here. [ ]: non-standard residue; d: D form. The star is where a group is joined. DBCO′ = dibenzocyclooctyne; Orn = NCCC[C@H](N)C(=O)O; Pra = C#CC[C@H](N)C(=O)O; Dap = NC[C@H](N)C(=O)O; Acm = CC(=O)NC*

Tests used:
[1] = target: T1, Fc tagged recombinant human EGFR (rhEGFR-Fc) (Homo sapiens, UniProt P00533); type: binding; details: for KD: Table 6, TGF fragments; for KD/P2 KD: Table 13, point mutations; for Result: Table 14, relative affinity compared to KD of parent P2 (FIG. 16); for KD (μM): Table 11, P2 Ala scan; for Relative Affinity: Table 11, relative to the KD of parent P2
T1 construct: purchased R&D Systems 344-ER-050
Method: Surface plasmon resonance (SPR) binding studies were carried out on a Biacore T200 instrument (GE Healthcare). Approximately 10,000 RU of anti-Fc antibody (GE Healthcare, Cat #BR100839) was immobilized via amine coupling on each of flow cells 1 and 2 of a CM5 dextran-coated gold sensor chip (GE Healthcare, Cat #BR100530). […] The contact time and resulting amount of rhEGFR-Fc capture was varied based on the nature of the analyte, namely whether it was a peptide or nanoparticle.
Peptide binding assays were carried out in 10 mM PBS buffer supplemented with 0.05% surfactant P20 and 5% DMSO by volume, at 25° C. Peptides were injected over the rhEGFR-Fc surface for 60 s, followed by dissociation (buffer injection) for 60 s and regeneration with a 10 s pulse of 3M MgCl2. A fresh rhEGFR-Fc surface was generated for each concentration of each peptide tested. Peptide binding data was analyzed by fitting to a 1:1 Langmuir kinetic model to obtain the on-rate (ka), off-rate (kd) and/or equilibrium binding constant (KD) of the interaction.

[2] = target: T2, rhEGFR-Fc (Homo sapiens, UniProt P00533); experiment: SPR nanoparticle binding, without EGF; details: 1 mg/mL; for nanoparticle binding: FIG. 9C
T2 construct: purchased R&D Systems 344-ER-050
Method: Surface plasmon resonance (SPR) binding studies were carried out on a Biacore T200 instrument (GE Healthcare). Approximately 10,000 RU of anti-Fc antibody (GE Healthcare, Cat #BR100839) was immobilized via amine coupling on each of flow cells 1 and 2 of a CM5 dextran-coated gold sensor chip (GE Healthcare, Cat #BR100530). Fc tagged recombinant human EGFR (rhEGFR-Fc, R&D systems, Cat #344-ER-050) was reconstituted at 10 μg/mL in PBS and captured on flow cell 2. The contact time and resulting amount of rhEGFR-Fc capture was varied based on the nature of the analyte, namely whether it was a peptide or nanoparticle.
Nanoparticle binding assays were carried out in 10 mM HBS-EP+ buffer (GE Healthcare, Cat #BR100669) at 25° C. Nanoparticles were injected over the rh EGFR-Fc surface for 60 s, followed by dissociation for 60 s and regeneration with a 10 s pulse of 3M MgCl2. A fresh rhEGFR-Fc surface was generated for each concentration of each nanoparticle tested. Nanoparticle sensograms could not be fit accurately to the 1:1 Langmuir kinetic model due to the multivalent nature of the binding interaction between nanoparticle and target. Instead, nanoparticle binding data was presented as a plot of binding response vs. concentration at a single time point after the injection end.

C#CC[C@H](NC(=O)CN)C(=O)NCC(=O)NCC(=O)N[C@@H](C)C(=O)N[C@@H](CCCNC(=N)N)C(=O)N[C@@H](CS)C(=O)N[C@@H](Cc1c[nH]cn1)C(=O)N[C@@H](CCC(=O)O)C(=O)N[C@@H](Cc1c[nH]cn1)C(=O)N[C@@H](C)C(=O)N[C@@H](CC(=O)O)C(=O)N[C@@H](CC(C)C)C(=O)N[C@@H](CC(C)C)C(=O)N[C@@H](C)C(N)=O [TGFf-14] (H-G[Pra]GGARCHEHADLLA-NH2)
KD [1]: No binding

Ac-SECFPLAPDWLSCILGGK(DBCO)-CONH2 (Ac-SECFPLAPDWLSCILGGK(DBCO′)-NH2; disulfide 3-13 (inferred)) [Peptide P1]
nanoparticle binding signal ([2]; 5% and 10% ligand density, FIG. 8B): comparable to EGF-NP
nanoparticle binding ([2]; 5% ligand density): minimal binding
nanoparticle binding ([2]; 10% ligand density): more robust binding

H2N-DPCTWEVFGRECLQ-GG-Par-G-CONH2 [Peptide P2-40]
KD/P2 KD [1]: NS at 100 μM

H2N-DPCTWEVWARECLQ-GG-Par-G-CONH2 [Peptide P2-41]
KD/P2 KD [1]: NS at 100 μM

H2N-G-Par-GG-CPDSHTQFC(Acm)FHGTC-CONH2 (H-G[Pra]GGCPDSHTQFC(Acm)FHGTC-NH2; disulfide 5-18; SMILES C#CC[C@H](NC(=O)CN)C(=O)NCC(=O)NCC(=O)N[C@H]1CSSC[C@@H](C(N)=O)NC(=O)[C@H]([C@@H](C)O)NC(=O)CNC(=O)[C@H](Cc2c[nH]cn2)NC(=O)[C@H](Cc2ccccc2)NC(=O)[C@H](CSCNC(C)=O)NC(=O)[C@H](Cc2ccccc2)NC(=O)[C@H](CCC(N)=O)NC(=O)[C@H]([C@@H](C)O)NC(=O)[C@H](Cc2c[nH]cn2)NC(=O)[C@H](CO)NC(=O)[C@H](CC(=O)O)NC(=O)[C@@H]2CCCN2C1=O) [TGFf-3]
KD [1]: Not soluble

H2N-GDP-Dap-TWEVWGREDLQ-GG-Par-G-CONH2 (H-GDP[Dap]TWEVWGREDLQGG[Pra]G-NH2; lactam 4-13) [Peptide P2-59]
Result [1]: No binding

H2N-GDP-Dap-TWEVWGREELQ-GG-Par-G-CONH2 (H-GDP[Dap]TWEVWGREELQGG[Pra]G-NH2; lactam 4-13) [Peptide P2-63]
Result [1]: No binding

H2N-GDP-Orn-TWEVWGREDLQ-GG-Par-G-CONH2 (H-GDP[Orn]TWEVWGREDLQGG[Pra]G-NH2; lactam 4-13; SMILES C#CC[C@H](NC(=O)CNC(=O)CNC(=O)[C@H](CCC(N)=O)NC(=O)[C@H](CC(C)C)NC(=O)[C@@H]1CC(=O)NCCC[C@H](NC(=O)[C@@H]2CCCN2C(=O)[C@H](CC(=O)O)NC(=O)CN)C(=O)N[C@@H]([C@@H](C)O)C(=O)N[C@@H](Cc2c[nH]c3ccccc23)C(=O)N[C@@H](CCC(=O)O)C(=O)N[C@@H](C(C)C)C(=O)N[C@@H](Cc2c[nH]c3ccccc23)C(=O)NCC(=O)N[C@@H](CCCNC(=N)N)C(=O)N[C@@H](CCC(=O)O)C(=O)N1)C(=O)NCC(N)=O) [Peptide P2-58]
Result [1]: No binding

H2N-GDP-Orn-TWEVWGREELQ-GG-Par-G-CONH2 (H-GDP[Orn]TWEVWGREELQGG[Pra]G-NH2; lactam 4-13; SMILES C#CC[C@H](NC(=O)CNC(=O)CNC(=O)[C@H](CCC(N)=O)NC(=O)[C@H](CC(C)C)NC(=O)[C@@H]1CCC(=O)NCCC[C@H](NC(=O)[C@@H]2CCCN2C(=O)[C@H](CC(=O)O)NC(=O)CN)C(=O)N[C@@H]([C@@H](C)O)C(=O)N[C@@H](Cc2c[nH]c3ccccc23)C(=O)N[C@@H](CCC(=O)O)C(=O)N[C@@H](C(C)C)C(=O)N[C@@H](Cc2c[nH]c3ccccc23)C(=O)NCC(=O)N[C@@H](CCCNC(=N)N)C(=O)N[C@@H](CCC(=O)O)C(=O)N1)C(=O)NCC(N)=O) [Peptide P2-61]
Result [1]: No binding

H2N-GDPDTWEVWGRE-Dap-LQ-GG-Par-G-CONH2 (H-GDPDTWEVWGRE[Dap]LQGG[Pra]G-NH2; lactam 4-13) [Peptide P2-66]
Result [1]: No binding

H2N-GDPDTWEVWGRE-Orn-LQ-GG-Par-G-CONH2 (H-GDPDTWEVWGRE[Orn]LQGG[Pra]G-NH2; lactam 4-13; SMILES C#CC[C@H](NC(=O)CNC(=O)CNC(=O)[C@H](CCC(N)=O)NC(=O)[C@H](CC(C)C)NC(=O)[C@@H]1CCCNC(=O)C[C@H](NC(=O)[C@@H]2CCCN2C(=O)[C@H](CC(=O)O)NC(=O)CN)C(=O)N[C@@H]([C@@H](C)O)C(=O)N[C@@H](Cc2c[nH]c3ccccc23)C(=O)N[C@@H](CCC(=O)O)C(=O)N[C@@H](C(C)C)C(=O)N[C@@H](Cc2c[nH]c3ccccc23)C(=O)NCC(=O)N[C@@H](CCCNC(=N)N)C(=O)N[C@@H](CCC(=O)O)C(=O)N1)C(=O)NCC(N)=O) [Peptide P2-65]
Result [1]: No binding

H2N-GDPDTWEVWGREKLQ-GG-Par-G-CONH2 (H-GDPDTWEVWGREKLQGG[Pra]G-NH2; lactam 4-13; SMILES C#CC[C@H](NC(=O)CNC(=O)CNC(=O)[C@H](CCC(N)=O)NC(=O)[C@H](CC(C)C)NC(=O)[C@@H]1CCCCNC(=O)C[C@H](NC(=O)[C@@H]2CCCN2C(=O)[C@H](CC(=O)O)NC(=O)CN)C(=O)N[C@@H]([C@@H](C)O)C(=O)N[C@@H](Cc2c[nH]c3ccccc23)C(=O)N[C@@H](CCC(=O)O)C(=O)N[C@@H](C(C)C)C(=O)N[C@@H](Cc2c[nH]c3ccccc23)C(=O)NCC(=O)N[C@@H](CCCNC(=N)N)C(=O)N[C@@H](CCC(=O)O)C(=O)N1)C(=O)NCC(N)=O) [Peptide P2-64]
Result [1]: No binding

H2N-GDPETWEVWGRE-Dap-LQ-GG-Par-G-CONH2 (H-GDPETWEVWGRE[Dap]LQGG[Pra]G-NH2; lactam 4-13) [Peptide P2-69]
Result [1]: No binding

H2N-GDPETWEVWGRE-Orn-LQ-GG-Par-G-CONH2 (H-GDPETWEVWGRE[Orn]LQGG[Pra]G-NH2; lactam 4-13; SMILES C#CC[C@H](NC(=O)CNC(=O)CNC(=O)[C@H](CCC(N)=O)NC(=O)[C@H](CC(C)C)NC(=O)[C@@H]1CCCNC(=O)CC[C@H](NC(=O)[C@@H]2CCCN2C(=O)[C@H](CC(=O)O)NC(=O)CN)C(=O)N[C@@H]([C@@H](C)O)C(=O)N[C@@H](Cc2c[nH]c3ccccc23)C(=O)N[C@@H](CCC(=O)O)C(=O)N[C@@H](C(C)C)C(=O)N[C@@H](Cc2c[nH]c3ccccc23)C(=O)NCC(=O)N[C@@H](CCCNC(=N)N)C(=O)N[C@@H](CCC(=O)O)C(=O)N1)C(=O)NCC(N)=O) [Peptide P2-68]
Result [1]: No binding

H2N-GDPKTWEVWGREELQ-GG-Par-G-CONH2 (H-GDPKTWEVWGREELQGG[Pra]G-NH2; lactam 4-13; SMILES C#CC[C@H](NC(=O)CNC(=O)CNC(=O)[C@H](CCC(N)=O)NC(=O)[C@H](CC(C)C)NC(=O)[C@@H]1CCC(=O)NCCCC[C@H](NC(=O)[C@@H]2CCCN2C(=O)[C@H](CC(=O)O)NC(=O)CN)C(=O)N[C@@H]([C@@H](C)O)C(=O)N[C@@H](Cc2c[nH]c3ccccc23)C(=O)N[C@@H](CCC(=O)O)C(=O)N[C@@H](C(C)C)C(=O)N[C@@H](Cc2c[nH]c3ccccc23)C(=O)NCC(=O)N[C@@H](CCCNC(=N)N)C(=O)N[C@@H](CCC(=O)O)C(=O)N1)C(=O)NCC(N)=O) [Peptide P2-60]
Result [1]: No binding

P2-3: P2 alanine scan analog, alanine at position 3 (Ac-DPATWEVWGRECLQ-NH2) [Peptide P2-3]
KD (μM) [1]: nb
Relative Affinity [1]: nb

P2-8: P2 alanine scan analog, alanine at position 8 (DPCTWEVAGRECLQ; disulfide 3-12 (inferred); not fully specified (N-terminus, C-terminus)) [Peptide P2-8]
KD (μM) [1]: nb
Relative Affinity [1]: nb

P2-12: P2 alanine scan analog, alanine at position 12 (Ac-DPCTWEVWGREALQ-NH2) [Peptide P2-12]
KD (μM) [1]: nb
Relative Affinity [1]: nb
